Measurements published in patent US20210155701A1 (Chugai, published 2021).

T1: human CD3ed-Fc (biotin-labeled human CD3 epsilon and human CD3 delta linked to a human antibody constant … (human, biotin-labeled (BirA co-expression); site not stated)
T1 construct: also called CD3 epsilon delta heterodimer fused with the antibody constant region
T1 chain 1: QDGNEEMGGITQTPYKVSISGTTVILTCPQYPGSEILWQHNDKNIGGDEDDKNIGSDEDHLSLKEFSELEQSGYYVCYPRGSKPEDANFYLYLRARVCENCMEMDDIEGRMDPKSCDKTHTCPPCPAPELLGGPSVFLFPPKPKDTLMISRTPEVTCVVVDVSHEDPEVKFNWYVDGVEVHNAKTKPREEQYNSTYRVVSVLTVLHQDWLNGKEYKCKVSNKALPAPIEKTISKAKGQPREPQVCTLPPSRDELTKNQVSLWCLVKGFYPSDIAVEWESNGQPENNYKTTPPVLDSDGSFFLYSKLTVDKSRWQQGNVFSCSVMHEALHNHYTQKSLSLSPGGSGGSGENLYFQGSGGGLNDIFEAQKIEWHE
T1 chain 2: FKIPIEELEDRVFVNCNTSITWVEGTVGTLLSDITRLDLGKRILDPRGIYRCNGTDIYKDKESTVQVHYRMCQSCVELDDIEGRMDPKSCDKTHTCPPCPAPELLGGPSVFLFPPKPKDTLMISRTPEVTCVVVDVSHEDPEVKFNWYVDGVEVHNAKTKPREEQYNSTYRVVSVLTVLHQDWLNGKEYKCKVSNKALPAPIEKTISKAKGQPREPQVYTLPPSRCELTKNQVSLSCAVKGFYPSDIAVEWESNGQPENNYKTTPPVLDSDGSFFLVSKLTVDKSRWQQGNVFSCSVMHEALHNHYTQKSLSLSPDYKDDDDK


Legend:
[1] = target: T1, human CD3ed-Fc (biotin-labeled human …); assay: BLI (Octet RED) as in Example 3
[2] = target: T2, biotinylated plexin A1 (human, UniProt Q9UIW2 27-1253, biotin on the AviTag sequence (SEQ ID NO: 36)); assay: BLI (Octet) as in Example 3
T2 construct: also called biotin-labeled human plexin A1; human plexin A1
T2 sequence (Q9UIW2 other isoform, or with tags, fused parts or gaps limits assumed): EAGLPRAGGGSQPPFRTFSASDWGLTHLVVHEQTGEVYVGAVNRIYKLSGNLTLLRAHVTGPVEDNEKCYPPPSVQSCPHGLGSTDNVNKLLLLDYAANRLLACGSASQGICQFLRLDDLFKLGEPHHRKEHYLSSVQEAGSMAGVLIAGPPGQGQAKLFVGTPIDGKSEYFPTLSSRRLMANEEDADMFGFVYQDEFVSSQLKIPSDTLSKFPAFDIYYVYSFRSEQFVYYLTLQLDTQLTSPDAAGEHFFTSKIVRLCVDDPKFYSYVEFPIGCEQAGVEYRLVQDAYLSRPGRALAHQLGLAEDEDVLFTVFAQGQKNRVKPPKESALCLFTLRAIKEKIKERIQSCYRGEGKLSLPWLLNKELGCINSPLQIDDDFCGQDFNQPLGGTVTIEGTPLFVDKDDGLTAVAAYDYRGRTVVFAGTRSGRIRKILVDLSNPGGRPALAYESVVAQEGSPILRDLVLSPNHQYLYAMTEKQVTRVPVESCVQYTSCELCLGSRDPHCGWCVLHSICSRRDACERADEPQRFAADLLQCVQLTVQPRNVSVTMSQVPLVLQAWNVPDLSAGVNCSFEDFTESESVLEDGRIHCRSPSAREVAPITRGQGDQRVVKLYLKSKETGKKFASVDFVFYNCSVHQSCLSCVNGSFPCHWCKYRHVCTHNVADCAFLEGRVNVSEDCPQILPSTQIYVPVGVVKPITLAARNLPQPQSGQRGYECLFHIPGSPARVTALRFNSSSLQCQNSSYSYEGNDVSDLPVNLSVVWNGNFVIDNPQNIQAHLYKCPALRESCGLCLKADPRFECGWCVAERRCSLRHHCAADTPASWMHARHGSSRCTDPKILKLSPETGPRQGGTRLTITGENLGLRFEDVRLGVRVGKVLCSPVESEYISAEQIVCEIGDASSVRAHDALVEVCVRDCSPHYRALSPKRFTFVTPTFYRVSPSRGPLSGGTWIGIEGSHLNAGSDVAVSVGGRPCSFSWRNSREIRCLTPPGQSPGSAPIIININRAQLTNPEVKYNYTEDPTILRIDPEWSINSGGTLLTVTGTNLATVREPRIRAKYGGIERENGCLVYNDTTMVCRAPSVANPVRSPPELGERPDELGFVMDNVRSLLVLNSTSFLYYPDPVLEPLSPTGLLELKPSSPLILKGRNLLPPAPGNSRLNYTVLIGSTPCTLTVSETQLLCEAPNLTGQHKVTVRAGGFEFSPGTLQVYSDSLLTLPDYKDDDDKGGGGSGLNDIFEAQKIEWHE

Binder	binding result [1]	binding result [2]
bC3edL1R1N161H01-G1mISHI01/VK1-39-k0MT (before protease treatment) (antibody, human IgG1, kappa, V domains shown, Uncleaved) VH: QVQLVESGGGLVQPGGSLRLSCAASGFPFDNYVMSWVRQAPGKGLEWISAISWNGGSTYYAESMKGRFTISRDNAKSTLYLQMNSLKSEDTAVYYCAKEPRVYYSGSPDYWGQGTQVTVSG VL: DIQMTQSPSSLSASVGDRVTITCRASQSISSYLNWYQQKPGKAPKLLIYAASSLQSGVPSRFSGSGSGTDFTLTISSLQPEDFATYYCLQFDSYPLTFGGGTKVEIKR	no binding	
bC3edL1R1N164H01-G1mISHI01/VK1-39-k0MT (before protease treatment) (antibody, human IgG1, kappa, V domains shown, Uncleaved) VH: QVQLVESGGGLVQPGGSLRLSCAASGFTFDVYGMSWVRHSPGKGLEWVSTINWNGGSTYYAESMKGRFTISRDNAKNTVYLQMNSLKPEDTAVYYCAKFAPWDGDMEWGQGTQVTVSG VL: DIQMTQSPSSLSASVGDRVTITCRASQSISSYLNWYQQKPGKAPKLLIYAASSLQSGVPSRFSGSGSGTDFTLTISSLQPEDFATYYCLQFDSYPLTFGGGTKVEIKR	no binding	
PX02-R4_017-G1mISHI01/VK1-39-k0MT (before protease treatment) (antibody, human IgG1, kappa, V domains shown, Uncleaved) VH: QVQLVESGGGLVQPGGSLRLSCTASGISFSISTMGWYRQAPGKQRELVATITSGGEAYYANSMKDRFTISRDNAENTVYLQMNRLKPEDSAVYYCNTKFPWSTDWNARGQGTQVTVSG VL: DIQMTQSPSSLSASVGDRVTITCRASQSISSYLNWYQQKPGKAPKLLIYAASSLQSGVPSRFSGSGSGTDFTLTISSLQPEDFATYYCLQFDSYPLTFGGGTKVEIKR		no binding
PX03-R2_006-G1mISHI01/VK1-39-k0MT (before protease treatment) (antibody, human IgG1, kappa, V domains shown, Uncleaved) VH: QLQLVESGGGLVQPGGSLRLSCTASGISFSISTMGWYRQAPGKQRELVATIASGGEAYYANSVKGRFTISRDNAENTVYLQMNRLKPEDSAVYYCNTKFPWSTDWNARGQGTQVTVSG VL: DIQMTQSPSSLSASVGDRVTITCRASQSISSYLNWYQQKPGKAPKLLIYAASSLQSGVPSRFSGSGSGTDFTLTISSLQPEDFATYYCLQFDSYPLTFGGGTKVEIKR		no binding
PX03-R4_009-G1mISHI01/VK1-39-k0MT (before protease treatment) (antibody, human IgG1, kappa, V domains shown, Uncleaved) VH: QLQLVESGGGLVQPGGSLRLSCTASGISFSISTMGWYRQAPGKQRELVATIASGGEAYYANSVKGRFTISREYAENTVFLQMNRLKPEDSAVYYCNTKFPWSTDWNARGQGTQVTVSG VL: DIQMTQSPSSLSASVGDRVTITCRASQSISSYLNWYQQKPGKAPKLLIYAASSLQSGVPSRFSGSGSGTDFTLTISSLQPEDFATYYCLQFDSYPLTFGGGTKVEIKR		no binding
